In patent US20140212427A1 (published 2014):

Target: human properdin (UniProt P27918 28-469)
Test: Biacore SPR

Sequence of human properdin (P27918 28-469): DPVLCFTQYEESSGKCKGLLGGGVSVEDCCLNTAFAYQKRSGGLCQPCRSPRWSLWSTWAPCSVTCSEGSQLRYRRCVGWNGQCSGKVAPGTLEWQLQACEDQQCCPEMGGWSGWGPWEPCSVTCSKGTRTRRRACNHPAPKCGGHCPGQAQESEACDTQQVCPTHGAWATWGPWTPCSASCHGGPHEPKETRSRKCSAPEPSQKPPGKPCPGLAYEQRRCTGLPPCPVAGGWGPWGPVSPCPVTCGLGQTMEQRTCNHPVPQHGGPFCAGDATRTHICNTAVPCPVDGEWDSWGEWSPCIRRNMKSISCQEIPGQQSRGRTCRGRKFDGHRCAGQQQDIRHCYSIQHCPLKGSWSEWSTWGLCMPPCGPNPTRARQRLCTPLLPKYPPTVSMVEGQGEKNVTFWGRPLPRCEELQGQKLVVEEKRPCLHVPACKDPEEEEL

Row | Binder | Kd
1 | humanized 19.1 mAb with heavy chain variable region humanized 19.1 VH-4-59-01 (antibody, V domains shown) VH: QVQLQESGPGLVKPSETLSLTCTVSGFSLTTYGVHWIRQPPGKGLEWIGVIWSGGDTDYNASFISRVTISVDTSKNQFSLKLSSVTAADTAVYYCARNKDYYTNYDFTMDYWGQGTTVTVSS VL: not shown | 0.58 nM
2 | chimeric 19.1 mAb (antibody, V domains shown) VH: QVQLKQSGPGLVQPSQSLSISCTVSGFSLTTYGVHWVRQSPGKGLEWLGVIWSGGDTDYNASFISRLRINKDTSKSQVFFKMNSLQADDTAYYCARNKDYYTNYDFTMDYWGQGTSVTVSS VL: NIMMTQSPSSLAVSAGEKVTMSCKSSQSVLYSSNQKNFLAWYQQKPGQSPKLLIYWASTRESGVPDRFTGSGSGTDFILTINSVQVEDQAVYYCHQYLSSYTFGGGTKLEIKT | 0.00289 nM

Results, then the binder that gave them:

Row | Kd | Binder
3 | 0.47 nM | humanized 19.1 mAb with heavy chain variable region humanized 19.1 VH-3-66-04 (antibody, V domains shown) VH: EVQLVESGGGLVQPGGSLRLSCAASGFSLTTYGVHWVRQAPGKGLEWVSVIWSGGDTDYNASFISRFTISRDNSKNTLYLQMNSLRAEDTAVYYCARNKDYYTNYDFTMDYWGQGTTVTVSS VL: not shown
4 | 0.00284 nM | mAb 19.1 (antibody, V domains shown) VH: QVQLKQSGPGLVQPSQSLSISCTVSGFSLTTYGVHWVRQSPGKGLEWLGVIWSGGDTDYNASFISRLRINKDTSKSQVFFKMNSLQADDTAYYCARNKDYYTNYDFTMDYWGQGTSVTVSS VL: NIMMTQSPSSLAVSAGEKVTMSCKSSQSVLYSSNQKNFLAWYQQKPGQSPKLLIYWASTRESGVPDRFTGSGSGTDFILTINSVQVEDQAVYYCHQYLSSYTFGGGTKLEIK
